# Source: the supplement of paper PMC12667976
# ± gives the standard error.
# B1: library; numbered along this chain (parent)
# chain: MATDAALRRLLRLHRTEIAVAVDSAFPLLHALADHDVVPEDKFQETLHLKEKEGCPQAFHALLSWLLTQDSTAILDFWRVLFKDYNLERYGRLQPILDSFPKDVDLSQPRKGRKPPAVPKALVPPPRLPTKRKASEEARAAAPAALTPRGTASPGSQLKAKPPKKPESSAEQQRLPLGNGIQTMSASVQRAVAMSSGDVPGARGAVEGILIQQVFESGGSKKCIQVGGEFYTPSKFEDSGSGKNKARSSSGPKPLVRAKGAQGAAPGGGEARLGQQGSVPAPLALPSDPQLHQKNEDECAVCRDGGELICCDGCPRAFHLACLSPPLREIPSGTWRCSSCLQATVQEVQPRAEEPRPQEPPVETPLPPGLRSAGEEVRGPPGEPLAGMDTTLVYKHLPAPPSAAPLPGLDSSALHPLLCVGPEGQQNLAPGARCGVCGDGTDVLRCTHCAAAFHWRCHFPAGTSRPGTGLRCRSCSGDVTPAPVEGVLAPSPARLAPGPAKDDTASHEPALHRDDLESLLSEHTFDGILQWAIQSMARPAAPFPS
# Variants of: B1
# Assay: AIRE transcriptional activation functional score (insulin promoter-GFP; nonsense median 0, synonymous median 1) (normalised score); higher = higher AIRE activity (more reporter activation)
# Conditions: with insulin promoter-GFP reporter in HEK293
# Experimental: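 Deep mutational scan of full-length human AIRE (codon-optimized cDNA, DT-POPCode NNN libraries over three regions) integrated at a Bxb1 landing pad in HEK293 cells carrying an insulin core promoter-GFP reporter at a Flp-In site. Cells were sorted for the top 10% GFP about 14 days after transfection. Variant frequency log-ratios (select vs non-select, TileSeq) were rescaled so that the nonsense median is 0 and the synonymous median is 1, then averaged over biological replicates.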
row,Variant,AIRE transcriptional activation functional score
1,N244G,0.138 ± 0.71
2,P544C,0.924 ± 0.031
3,P384W,1.61 ± 0.039
4,P384S,0.379 ± 0.29
5,E329Y,1.42 ± 0.31
6,E329Q,-1.43 ± 0.53
7,T468N,1.08 ± 0.15
8,Q358S,1.04 ± 0.18
9,Q358W,1.27 ± 0.13
10,N86E,-0.323 ± 0.33
11,P143E,1.5 ± 0.46
12,P143W,1.15 ± 0.039
13,G208H,-0.0252 ± 0.11
14,A317E,1.37 ± 0.33
15,T441M,1.24 ± 0.095
16,M184E,-0.977 ± 0.11
17,L327K,0.524 ± 0.14
18,P266F,1.38 ± 0.22
19,G486Q,0.85 ± 0.15
20,S195N,0.649 ± 0.43
21,K102R,2.19 ± 0.56
22,A144M,0.931 ± 0.064
23,G201K,0.778 ± 0.27
24,S187R,1.18 ± 0.17

row,Variant,AIRE transcriptional activation functional score
1,S187M,0.503 ± 0.045
2,A134S,1.06 ± 0.4
3,A117T,1.16 ± 0.36
4,E270C,1.08 ± 0.53
5,P166F,1.94 ± 0.29
6,P166H,1.95 ± 0.16
7,P166M,1.41 ± 0.054
8,A489Y,1.22 ± 0.2
9,V20Y,0.662 ± 0.42
10,N179Y,1.15 ± 0.086
11,K259I,0.551 ± 0.072
12,F26V,-0.0518 ± 0.31
13,E40Q,0.577 ± 0.37
14,A373K,1.02 ± 0.2
15,F459I,0.371 ± 0.23
16,F459L,0.464 ± 0.23
17,M388F,1.15 ± 0.099
18,M388I,0.924 ± 0.41
19,A537L,0.0269 ± 0.21
20,L32W,-1.32 ± 0.41
21,L397C,0.827 ± 0.18
22,G477W,0.745 ± 0.15
23,G477N,1.12 ± 0.16
24,L308F,0.909 ± 0.1

row,Variant,AIRE transcriptional activation functional score
1,K52P,-0.13 ± 0.73
2,E485C,1.24 ± 0.047
3,A261W,1.33 ± 0.27
4,A261K,0.843 ± 0.36
5,V199C,0.807 ± 0.35
6,L175F,1.16 ± 0.46
7,L175A,0.583 ± 0.43
8,L7W,0.0852 ± 0.06
9,R174Y,1.09 ± 0.19
10,P492N,1.18 ± 0.092
11,L49F,0.262 ± 0.49
12,H415F,1.67 ± 0.23
13,V123D,1.11 ± 0.33
14,L10G,-0.12 ± 0.14
15,P129H,-0.142 ± 0.24
16,K501W,0.734 ± 0.049
17,K501H,0.51 ± 0.063
18,P539H,0.373 ± 0.15
19,E359P,0.935 ± 0.33
20,E359A,0.785 ± 0.2
21,G527L,0.0948 ± 0.22
22,V487P,1.04 ± 0.099
23,V487L,1.03 ± 0.18
24,V487E,-0.349 ± 0.43

row,Variant,AIRE transcriptional activation functional score
1,Y90Q,-0.537 ± 1.1
2,I533M,1.13 ± 0.36
3,A202P,0.867 ± 0.21
4,R272L,1.01 ± 0.29
5,A205C,1 ± 0.082
6,A141I,0.758 ± 0.28
7,G498R,0.839 ± 0.17
8,C340E,1.49 ± 0.15
9,A352I,1.08 ± 0.24
10,A264D,-0.0126 ± 0.12
11,S411W,1.31 ± 0.045
12,P497L,1.34 ± 0.23
13,E522I,0.133 ± 0.3
14,E522C,0.0951 ± 0.24
15,C449A,-0.278 ± 0.3
16,T151D,1.27 ± 0.33
17,Q212F,0.392 ± 0.063
18,P483L,0.603 ± 0.34
19,T390K,1.1 ± 0.15
20,T390G,1.17 ± 0.082
21,G267V,1.12 ± 0.15
22,G267I,1.18 ± 0.053
23,G267E,1.87 ± 0.092
24,D297R,0.34 ± 0.4

row,Variant,AIRE transcriptional activation functional score
1,D198N,1.09 ± 0.14
2,D198C,0.704 ± 0.16
3,G268I,1.19 ± 0.14
4,A343I,1.36 ± 0.074
5,D288Q,0.949 ± 0.084
6,H458S,0.164 ± 0.44
7,L406Y,1.02 ± 0.14
8,P355Y,1.49 ± 0.22
9,R257V,0.256 ± 0.14
10,A432N,-0.334 ± 0.22
11,A432D,0.806 ± 0.097
12,A532N,0.0785 ± 0.19
13,D70K,2.05 ± 0.09
14,D70G,0.895 ± 0.36
15,K243T,1.08 ± 0.15
16,A461Y,1.16 ± 0.12
17,A461T,0.39 ± 0.7
18,A451Q,-0.927 ± 0.22
19,G306V,0.712 ± 0.12
20,P280D,0.642 ± 0.23
21,P280V,1.2 ± 0.15
22,R513E,-0.344 ± 0.066
23,Q44E,-0.441 ± 0.47
24,R110C,0.426 ± 0.55

row,Variant,AIRE transcriptional activation functional score
1,R110D,2.5 ± 0.21
2,R110T,0.97 ± 0.15
3,P361M,1.3 ± 0.036
4,P361V,1.21 ± 0.13
5,C322Y,0.843 ± 0.064
6,P125G,1.08 ± 0.39
7,P466Y,1.21 ± 0.21
8,A500M,0.733 ± 0.036
9,L66M,0.0543 ± 0.14
10,C302I,0.572 ± 0.14
11,C302N,0.531 ± 0.29
12,P282M,1.1 ± 0.029
13,P282W,1.1 ± 0.065
14,A404G,0.91 ± 0.49
15,L529A,-0.089 ± 0.14
16,G112V,0.878 ± 0.38
17,D410Y,1.27 ± 0.1
18,E216R,-0.537 ± 0.11
19,E354D,1.22 ± 0.22
20,I96M,-0.371 ± 0.17
21,S412V,1.13 ± 0.17
22,T46Y,0.503 ± 0.35
23,T46N,-0.328 ± 0.33
24,L28D,-0.558 ± 0.17

row,Variant,AIRE transcriptional activation functional score
1,V345C,1.04 ± 0.15
2,A321R,0.843 ± 0.14
3,D312A,1.19 ± 0.17
4,S464D,0.7 ± 0.34
5,S464M,-0.078 ± 0.07
6,D502N,0.775 ± 0.2
7,R456I,1.1 ± 0.72
8,S250A,0.792 ± 0.13
9,D503V,0.937 ± 0.17
10,F82I,0.234 ± 0.36
11,F43W,0.0722 ± 0.093
12,P360S,0.994 ± 0.16
13,A152N,0.485 ± 0.32
14,D515R,-0.0862 ± 0.14
15,P124M,1.48 ± 0.096
16,L13P,0.275 ± 0.3
17,L13H,0.357 ± 0.16
18,L13Y,1.42 ± 0.61
19,T3E,-0.211 ± 0.065
20,P27K,0.0588 ± 0.14
21,W65G,0.22 ± 0.48
22,W65P,-0.233 ± 0.91
23,S99N,0.889 ± 0.3
